Measurements published in patent US20190092852A1 (Genentech, published 2019).
Where “and” joins values, the source holds several entries; their conditions need not be identical. Equal values may be shown once.

T1: cyno IL-33 (cell-based blocking assay of Example 2) (cynomolgus monkey, UniProt A0A2K5W3I1 95-269)
T1 sequence: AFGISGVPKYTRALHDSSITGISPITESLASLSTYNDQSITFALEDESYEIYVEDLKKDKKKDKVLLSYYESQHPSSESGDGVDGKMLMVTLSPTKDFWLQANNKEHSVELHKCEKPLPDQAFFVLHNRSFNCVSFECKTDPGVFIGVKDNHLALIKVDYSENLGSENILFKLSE

T2: human IL-33 (cell-based blocking assay of Example 2) (human, UniProt O95760 112-270)
T2 sequence (looked up): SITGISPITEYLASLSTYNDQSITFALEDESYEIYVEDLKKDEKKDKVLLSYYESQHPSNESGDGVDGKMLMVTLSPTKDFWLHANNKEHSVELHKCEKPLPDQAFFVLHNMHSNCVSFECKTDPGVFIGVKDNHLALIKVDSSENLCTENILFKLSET

T3: human IL-33 (Genentech, huIL33.his) (human, UniProt O95760 112-270)
T3 sequence (looked up): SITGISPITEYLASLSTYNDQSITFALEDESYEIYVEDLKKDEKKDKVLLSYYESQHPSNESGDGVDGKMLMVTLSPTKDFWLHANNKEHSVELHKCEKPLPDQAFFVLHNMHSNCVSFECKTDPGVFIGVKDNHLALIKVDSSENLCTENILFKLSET

T4: cyno IL-33 (construct not stated) (cynomolgus monkey, UniProt A0A2K5W3I1 112-269)
T4 construct: also called cynomolgus IL-33; cyno IL-33 (Genentech)
T4 sequence: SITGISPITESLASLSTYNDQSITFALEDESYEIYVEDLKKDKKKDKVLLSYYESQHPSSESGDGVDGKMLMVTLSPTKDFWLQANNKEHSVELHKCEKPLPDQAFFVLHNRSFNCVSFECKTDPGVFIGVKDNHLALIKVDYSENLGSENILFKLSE


Key:
[1] = target: T1, cyno IL-33 (cell-based blocking assay …); assay: cell-based or functional assay
[2] = target: T2, human IL-33 (cell-based blocking assay …); assay: cell-based or functional assay
[3] = target: T3, human IL-33 (Genentech, huIL33.his); assay: SPR Biacore
[4] = target: T4, cyno IL-33 (construct not stated); assay: SPR Biacore
[5] = target: T1, cyno IL-33 (cell-based blocking assay …); assay: cell-based or functional assay; remark: listed apart in the source
[6] = target: T2, human IL-33 (cell-based blocking assay …); assay: cell-based or functional assay; remark: listed apart in the source

| Binder | Cell assay (cy) IC90 [1] | Cell assay (hu) IC90 [2] | Kd [3] | Kd [4] | IC50 (HEK-BLUE SEAP reporter, IL-33 blocking) [5] | IC90 (HEK-BLUE SEAP reporter, IL-33 blocking) [5] | IC50 (HEK-BLUE SEAP reporter, IL-33 blocking) [6] | IC90 (HEK-BLUE SEAP reporter, IL-33 blocking) [6] |
| --- | --- | --- | --- | --- | --- | --- | --- | --- |
| 2B6 (antibody, V domains shown, Murine hybridoma clone (Balb/C)) VH: EVLLQQSGPELVKPGASVKISCNASGYTFSDYNMNWVKQSHGKSLESIGDINPKNGDTFYNQNFKDKATLTIDKSSSTVYMELRSLTSEDTAMYYCARHYYYGSSYGGFVYWGQGTLVTVAA VL: DIQMNQSPSSLSASLGDTITITCHASQNINVWLSWYQQKAGNNPKLLIYAASKLHTGVPSRFTGSGSGTLFTLTISSLQPEDIATYYCQQGQSYPLTFGSGTNLELK | 0.526 µg/mL and 3.47 nM | 0.02 µg/mL and 0.13 nM | 0.03 nM | 0.33 nM | – | – | – | – |
| 6C11 (antibody, V domains shown, Murine hybridoma clone (Balb/C)) VH: EVKLEESGGGLVQPGGSMKLSCVASGFTFNKFWMNWVRQSPEKGLEWVAEIRLNSINYVKDYAESVKGRFTISRDDSKNSVYLQMNNLRAEDTGIYYCIRRNYGNWFFEIWGAGTTVTVSS VL: not shown | > 1.5 µg/mL and > 9.9 nM | 0.021 µg/mL and 0.14 nM | 0.06 nM | 0.79 nM | > 10 nM | > 10000 pM and > 1.5 µg/mL | 0.0213 nM | 120 pM and 0.0181 µg/mL |

Results, then the binder that gave them:

| Cell assay (cy) IC90 [1] | Cell assay (hu) IC90 [2] | Kd [3] | Kd [4] | IC50 (HEK-BLUE SEAP reporter, IL-33 blocking) [5] | IC90 (HEK-BLUE SEAP reporter, IL-33 blocking) [5] | IC50 (HEK-BLUE SEAP reporter, IL-33 blocking) [6] | IC90 (HEK-BLUE SEAP reporter, IL-33 blocking) [6] | Binder |
| --- | --- | --- | --- | --- | --- | --- | --- | --- |
| 0.193 µg/mL and 1.27 nM | 0.002 µg/mL and 0.013 nM | ≤ 0.007 nM | 0.07 nM | 0.142 nM | 1290 pM and 0.193 µg/mL | 0.0039 nM | 18.2 pM and 0.0027 µg/mL | 10C12 (antibody, V domains shown, Murine hybridoma clone from IL33 KO mouse) VH: DVNLVESGGGSVKPGGSLKLSCVASGFTFSSFSMSWVRQTPEKRLEWVATISGGKTFTDYVDSVKGRFTISRDDAKNTLYLQMSSLESEDTAMYYCTRANYGNWFFEVWGAGTTVAVSS VL: DIVLTQSPGFLVVSLGQRATISCRASESVAKYGLSLLNWFQQKPGQPPKLLIFAASNRGSGVPARFSGSGSGTDFSLNIHPMEEDDTAMYFCQQSKEVPFTFGSGTKLEIK |
| 0.041 µg/mL and 0.27 nM | 0.003 µg/mL and 0.02 nM | 0.06 nM | 0.09 nM | 0.0174 nM | 271 pM and 0.0407 µg/mL | 0.0053 nM | 31 pM and 0.0047 µg/mL | 10H2 (antibody, V domains shown, Murine hybridoma clone (Balb/C)) VH: EVKLEESGGGLVQPGGSMKLSCVASGFTFSNYWMNWVRQSPEKGLEWMAEITLKFNNYSTHYAESVKGRFSISRDDSKSTVYLQMNNLRAEDTGIYYCARRNYGDWYINVWGAGTTVTVSS VL: DIVLTQSPTSLAVSLGQRATISCRASESVDKFGMSFLNWFQQKPGQPPKLLIFVASSQGSGVPARFSGSGSGTDFSLNIHPVEEDDTAMYFCQQSKDIPYTFGGGTKLEIK |
| > 1.5 µg/mL and > 9.9 nM | 0.011 µg/mL and 0.73 nM | 0.07 nM | 0.91 nM | – | – | – | – | 9F6 (antibody, V domains shown, Murine hybridoma clone (Balb/C)) VH: QVQLQQSGNDLVKPGASVKLSCKASGYTFTSYWINWIKQRPGQGLEWIGRIAPGSGFISYNELFKDKATLTVDTSSSTAYIQLGSLSSEDSAVYFCAREFYYGSFYGGFAYWGQGTLVTVSA VL: DIQMNQSPSSLSASLGDTITITCHASQNIHVWLSWYQQKPGNIPKLLIYKASTLHTGVPSRFNGSGSGTGFTLTISSLQPEDIATYYCQQGQSSPLTFGAGTKLEVK |
